Patent US20260250411A1 (ALTRUBIO, published 2026)

Assays:
[1] = biological target: T1, human PSGL-1 (extracellular domain) recombinant protein (SinoBiological, 13863-H08H) (human, UniProt Q14242 42-320); assay: ELISA, plate coated with recombinant PSGL-1 at lower density (0.03 pg/mL as printed), FIG. 3C
T1 construct: extracellular domain; Bought protein; also called recombinant PSGL-1; hPSGL-1 extracellular domain antigen
T1 sequence (looked up): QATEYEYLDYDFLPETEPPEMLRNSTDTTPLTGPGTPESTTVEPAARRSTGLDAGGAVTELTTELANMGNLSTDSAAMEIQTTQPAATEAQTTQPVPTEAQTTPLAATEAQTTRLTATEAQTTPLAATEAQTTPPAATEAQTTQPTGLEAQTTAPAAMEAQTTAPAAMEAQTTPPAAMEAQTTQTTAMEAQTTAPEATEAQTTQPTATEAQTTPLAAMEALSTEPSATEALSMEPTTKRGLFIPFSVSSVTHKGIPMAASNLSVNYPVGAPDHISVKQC
Description: (§1) 96-well NUNC-Immuno plates (Thermo Fisher, Cat #442404) were coated with 100 μL per well of 0.5, 0.05, or 0.03 pg/mL human PSGL-1 (extracellular domain) recombinant protein (SinoBiological, 13863-H08H) overnight at 4° C. Plates were then washed with Wash Buffer (1×PBS with 0.05% Tween 20, pH 7.4) and blocked with 0.5% (w/v) BSA-PBS for 60 min at room temperature on a plate shaker set to 300 rpm. After blocking, 100 μL of serial dilutions of 15A7H-IgM, 15A7H-IgG4, and controls at concentration range of 5000 pM-4.89 pM were added to the wells and incubated at room temperature for 1 hour. […] After 5 final washes using Wash Buffer, the plates were read out using TMB substrate (followed the instruction manual of BD OptEIA. Cat. 555214) by incubating the wells with […] each of freshly prepared TMB Working Solution for 5 min followed by the addition of sulfuric acid to stop the reaction. Finally, the data of absorbance at 450 nm (OD450 nm) were collected on an ELISA plate reader and analyzed with SoftMax using a 4-parameter logistic model.

[2] = biological target: T2, human PSGL-1 on cells (Sp2/0-hPSGL-1 transfectants; activated human primary T cells) (human, UniProt Q14242 42-412); assay: cell-based or functional assay
T2 sequence (looked up): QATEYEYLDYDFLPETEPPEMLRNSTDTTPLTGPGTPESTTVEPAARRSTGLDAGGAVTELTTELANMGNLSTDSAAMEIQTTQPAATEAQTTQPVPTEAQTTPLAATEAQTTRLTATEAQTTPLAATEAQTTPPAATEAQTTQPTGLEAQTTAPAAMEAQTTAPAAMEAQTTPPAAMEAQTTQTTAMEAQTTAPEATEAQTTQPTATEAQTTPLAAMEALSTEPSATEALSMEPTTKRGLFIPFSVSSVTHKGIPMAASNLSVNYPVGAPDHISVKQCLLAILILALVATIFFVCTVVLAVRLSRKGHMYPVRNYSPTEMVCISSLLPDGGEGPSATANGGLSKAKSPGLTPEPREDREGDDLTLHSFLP

[3] = biological target: T1, human PSGL-1 (extracellular domain) …; assay: ELISA, plate coated with recombinant PSGL-1 at lower density (0.05 pg/mL as printed), FIG. 3B
Description: as §1

[4] = biological target: T1, human PSGL-1 (extracellular domain) …; assay: ELISA, plate coated with recombinant PSGL-1 at high density (0.5 µg/mL), FIG. 3A
Description: as §1

B1: 15A7H-IgM (antibody)
heavy: EVQLVESGGGLVQPGGSLRLSCAASGFTFSSFGMHWVRQAPGKGLEWVAYINGGSSTIFYANAVKGRFTISRDNAKNTLYLQMNSLRAEDTAVYYCARYASYGGGAMDYWGQGTLVTVSSGSASAPTLFPLVSCENSPSDTSSVAVGCLAQDFLPDSITFSWKYKNNSDISSTRGFPSVLRGGKYAATSQVLLPSKDVMQGTDEHVVCKVQHPNGNKEKNVPLPVIAELPPKVSVFVPPRDGFFGNPRKSKLICQATGFSPRQIQVSWLREGKQVGSGVTTDQVQAEAKESGPTTYKVTSTLTIKESDWLSQSMFTCRVDHRGLTFQQNASSMCVPDQDTAIRVFAIPPSFASIFLTKSTKLTCLVTDLTTYDSVTISWTRQNGEAVKTHTNISESHPNATFSAVGEASICEDDWNSGERFTCTVTHTDLPSPLKQTISRPKGVALHRPDVYLLPPAREQLNLRESATITCLVTGFSPADVFVQWMQRGQPLSPEKYVTSAPMPEPQAPGRYFAHSILTVSEEEWNTGETYTCVVAHEALPNRVTERTVDKSTGKPTLYNVSLVMSDTAGTCY
light: DIQMTQSPSSLSASVGDRVTITCRSSQSIVHNDGNTYFEWYQQKPGKAPKLLIYKVSNRFSGVPSRFSGSGSGTHFTLTISSLQPEDFATYYCFQGSYVPLTFGQGTKVEIKRTVAAPSVFIFPPSDEQLKSGTASVVCLLNNFYPREAKVQWKVDNALQSGNSQESVTEQDSKDSTYSLSSTLTLSKADYEKHKVYACEVTHQGLSSPVTKSFNRGEC
chain: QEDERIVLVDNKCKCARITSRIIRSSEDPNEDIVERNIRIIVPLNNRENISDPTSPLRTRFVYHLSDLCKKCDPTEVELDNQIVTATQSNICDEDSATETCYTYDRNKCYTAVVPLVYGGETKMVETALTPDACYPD
notes: also called 15A7H-IgM antibody; pentameric 15A7H-IgM
Question: For B1, which EC50 [1] is on record?
Answer: 0.0396 nM

Question: And the “EC50 (nM) of apoptosis of activated T cells, Donor 1” value [2]?
Answer: 0.0177 nM

Question: And the “EC50 (nM) of apoptosis of activated T cells, Donor 2” value [2]?
Answer: 0.0152 nM

Question: What about the “EC50 (nM) of apoptosis of activated T cells, Donor 3” value [2] of the same binder?
Answer: 0.0096 nM

Question: And the “EC50 (µg/mL) of apoptosis of activated T cells, Donor 1” value [2]?
Answer: 0.0156 µg/mL

Question: And the “EC50 (µg/mL) of apoptosis of activated T cells, Donor 2” value [2]?
Answer: 0.0134 µg/mL

Question: What about the “EC50 (µg/mL) of apoptosis of activated T cells, Donor 3” value [2] of the same binder?
Answer: 0.00844 µg/mL

Question: What about the EC50 [3] of the same binder?
Answer: 0.0459 nM

Question: And the EC50 [4]?
Answer: 0.0926 nM

B2: 15A7H-IgG4 (antibody, V domains shown)
VH: EVQLVESGGGLVQPGGSLRLSCAASGFTFSSFGMHWVRQAPGKGLEWVAYINGGSSTIFYANAVKGRFTISRDNAKNTLYLQMNSLRAEDTAVYYCARYASYGGGAMDYWGQGTLVTVSS
VL: DIQMTQSPSSLSASVGDRVTITCRSSQSIVHNDGNTYFEWYQQKPGKAPKLLIYKVSNRFSGVPSRFSGSGSGTHFTLTISSLQPEDFATYYCFQGSYVPLTFGQGTKVEIKR
notes: Bivalent IgG4 antibody described in WO 2012/174001; In some functional assays it was used with a mouse anti-human IgG Fc-gamma cross-linker (CL); also called anti-PSGL-1 bivalent mAb 15A7H; 15A7H-IgG4 + CL (when used with cross-linker)
Question: With B2 as the binder, how does the EC50 [1] read?
Answer: 0.12 nM

Question: What about the EC50 [3] of the same binder?
Answer: 0.0974 nM

Question: And the EC50 [4]?
Answer: 0.141 nM
